# Reference: patent EP2119770B1, “Production of alpha-oxyfunctionalized carbonyl compounds” (priority 2008, dated 2009)
# Tests used:
# CCC(=O)C(C)=O = test: Enzyme kinetics (Lineweaver-Burk plots), Gox0644; type: biochemical, Gluconobacter oxydans; conditions: other: Gox0644; substrate 0.025 to 10 mM
# Experimental: (§1) Determination of pH and temperature optima and enzyme kinetics: The optimum pH for enzyme activities was determined by a modified method of Salusjärvi, T. et al., Appl. Microbiol. Biotechnol. 65:306-314 (2004) using the following buffer system (50 mM final concentration each): sodium acetate pH 4.5 - 6.5, potassium phosphate pH 6.5 - 8.0, Tris-HCl pH 8.0 - 10. Temperature optima for the biocatalysts were determined under standard reaction conditions at temperatures ranging from 20 - 80 °C. The Michaelis constant (Km) for the proteins was determined from purified enzyme by Lineweaver-Burk plots. Assays were performed at optimum pH for each enzyme and at 30 °C using the top substrate and a targeted substrate. The Km for each substrate was calculated using concentrations of 0.0025 to 10 mM, and the Km NAD(P)H and NAD(P) was calculated using concentrations of 0.01 to 0.5 mM
# (§2) The Michaelis constants were determined from purified enzyme by Lineweaver-Burk plots. The Km and Vmax values for the substrates were calculated using concentrations of 0.025 to 10 mM, The optimal pH values and temperatures for enzyme activities are also shown in Tab. 11. Tab. 11: Summary of kinetic parameters
# O=CC(=O)c1ccccc1 = test: Enzyme kinetics (Lineweaver-Burk plots), Gox0644; type: biochemical, Gluconobacter oxydans; conditions: other: Gox0644; substrate 0.025 to 10 mM
# Experimental: as §1, §2
# O=C1C=CC(=O)c2ccccc21 = test: Enzyme kinetics (Lineweaver-Burk plots), Gox2107; type: biochemical, Gluconobacter oxydans; conditions: other: Gox2107; substrate 0.025 to 10 mM
# Experimental: as §1, §2
# C=CC(C)=O = test: Enzyme kinetics (Lineweaver-Burk plots), Gox2107; type: biochemical, Gluconobacter oxydans; conditions: other: Gox2107; substrate 0.025 to 10 mM
# Experimental: as §1, §2
# [1] = substrate: NC(=O)c1ccc[n+]([C@@H]2O[C@H](COP(=O)(O)OP(=O)(O)OC[C@H]3O[C@@H](n4cnc5c(N)ncnc54)[C@H](OP(=O)(O)O)[C@@H]3O)[C@@H](O)[C@H]2O)c1; test: purified protein, by the assay type; conditions: other: Gox1122; for the cofactor NADP
# [2] = substrate: CC=O; test: Enzyme kinetics (Lineweaver-Burk plots), aldehyde dehydrogenase Gox1122; type: biochemical, Gluconobacter oxydans
# Experimental: Determination of pH and temperature optima and enzyme kinetics: The optimum pH for enzyme activities was determined by a modified method of Salusjärvi, T. et al., Appl. […] Temperature optima for the biocatalysts were determined under standard reaction conditions at temperatures ranging from 20 - 80 °C. The Michaelis constant (Km) for the proteins was determined from purified enzyme by Lineweaver-Burk plots. Assays were performed at optimum pH for each enzyme and at 30 °C using the top substrate and a targeted substrate.
# [3] = substrate: C=CC(C)=O; test: Enzyme kinetics (Lineweaver-Burk plots), Gox2684; type: biochemical, Gluconobacter oxydans; conditions: other: Gox2684; substrate 0.025 to 10 mM
# Experimental: as §1, §2
# [4] = substrate: CC(=O)C=O; test: Enzyme kinetics (Lineweaver-Burk plots), Gox1615; type: biochemical, Gluconobacter oxydans; conditions: other: Gox1615; substrate 0.025 to 10 mM
# Experimental: as §1, §2
# [5] = substrate: CCCC(=O)C(C)=O; test: Enzyme kinetics (Lineweaver-Burk plots), Gox1615; type: biochemical, Gluconobacter oxydans; conditions: other: Gox1615; substrate 0.025 to 10 mM
# Experimental: as §1, §2
# [6] = substrate: C=CC(C)=O; test: purified protein, by the assay type; conditions: other: Gox0502; substrate 0.025 to 10 mM
# [7] = other: Gox1122, aldehyde concentrations from 0.0025 to 10 mM
# [8] = other: Tab. 11, Gox1122, substrate 0.025 to 10 mM
molecule,measurement,setting,value
Gox0644 (Gluconobacter oxydans 621H),Km,CCC(=O)C(C)=O,5600 µM
same,Vmax,CCC(=O)C(C)=O,79.0 µmol/min/mg
same,Km,O=CC(=O)c1ccccc1,4700 µM
same,Vmax,O=CC(=O)c1ccccc1,93.0 µmol/min/mg
Gox2107 (Gluconobacter oxydans 621H),Km,O=C1C=CC(=O)c2ccccc21,10 µM
same,Vmax,O=C1C=CC(=O)c2ccccc21,217 U/mg protein
same,Km,C=CC(C)=O,3800 µM
same,Vmax,C=CC(C)=O,119 µmol/min/mg
Gox1122 (Gluconobacter oxydans 621H) (protein) MAYATINPYTGETLKTFPEATDQEVQTALTEAYDAFKSWRHTPFAERAKIMTAAANILRRDIDKYSKLLTLEMGKIYAEAKAETILSAEIFEYYAKNAEELLKAEKLPVADPKEGEAVLIHQPQGIVFAIEPWNFPFYQIARIIAPQLSAGNTVILKHASNVPQCAAAFDDLMKEAGLPKGGFRNLYAARHHTETILKDPRVCGVALTGSEGAGAVVAGIAAQALKKSTMELGGSDAFLVLDDADLEKTAKWAAFGRHWNAGQVCVSAKRLIVADAVYDRFVELYKAEVAKLIPGDPMDPKTTLAPLSSQKAADDLKAQVEEAKKHGAVVEAIGPSVPEKGAFFQPLLMTNLHENNEARLWEFFGPVTQLYRAKDDADAIRIANDSPFGLGGSVFTKDTQRGVKVAEQIYTGMVYINHPTMVKADLPFGGVARSGYGRELIGLGIKEFVNHKLIDVVDIDAPF,Km,[1],73 µM
same,Km,[2]; [7],255 µM
same,Vmax,[2]; [7],196 U/mg protein
same,Km,[2]; [8],200 µM
same,Vmax,[2]; [8],196 µmol/min/mg
Gox2684 (Gluconobacter oxydans 621H) (protein) MTSLFEPIELGSIYAKNRILMAPLTRGRGTRDHVPTPIMAEYYAQRAGAGLIISEATGISREGLGWPYAPGLWSQEQVEAWKPITAAVHAKGGKIVAQLWHMGRMVHSSVTGQQPVSCSATKAPEALHTYDGKQAPEVARPLTKEDIARILNDYENAARNALQAGFDGVQIHAANGYLIDEFLRDGTNHRSDEYGGSPENRIRFLREVTERVIATIGAHKTSVRLSPNGDTVGCIDSHPEQVFVPAAKLLNDLDIAFLELREPGPNGTFGKTDQPKLHGPIREVFRKPLVLNQDYTREEAIETVATGVADAISFGRPFLANPDLVRRLEDNLPQNKDDIRTWYSQGAEGYTDYPLAR,Km,[3],300 µM
same,Vmax,[3],11.3 µmol/min/mg
Gox1615 (Gluconobacter oxydans 621H) (protein) MASDTIRIPGIDTPLSRVALGTWAIGGWMWGGPDDDNGVRTIHAALDEGINLIDTAPVYGFGHSEEIVGRALAEKPNKAHVATKLGLHWVGEDEKNMKVFRDSRPARIRKEVEDSLRRLRVETIDLEQIHWPDDKTPIDESARELQKLHQDGKIRALGVSNFSPEQMDIFREVAPLATIQPPLNLFERTIEKDILPYAEKHNAVVLAYGALCRGLLTGKMNRDTTFPKDDLRSNDPKFQKPNFEKYLAAMDEFEKLAEKRGKSVMAFAVRWVLDQGPVIALWGARKPGQVSGVKDVFGWSLTDEEKKAVDDILARHVPNPIDPTFMAPPARD,Km,[4],3800 µM
same,Vmax,[4],22.0 µmol/min/mg
same,Km,[5],3200 µM
same,Vmax,[5],6.0 µmol/min/mg
Gox0502 (Gluconobacter oxydans 621H) (protein) MPTLFDPIDFGPIHAKNRIVMSPLTRGRADKEAVPTPIMAEYYAQRASAGLIITEATGISREGLGWPFAPGIWSDAQVEAWKPIVAGVHAKGGKIVCQLWHMGRMVHSSVTGTQPVSSSATTAPGEVHTYEGKKPFEQARAIDAADISRILNDYENAARNAIRAGFDGVQIHAANGYLIDEFLRNGTNHRTDEYGGVPENRIRFLKEVTERVIAAIGADRTGVRLSPNGDTQGCIDSAPETVFVPAAKLLQDLGVAWLELREPGPNGTFGKTDQPKLSPQIRKVFLRPLVLNQDYTFEAAQTALAEGKADAIAFGRKFISNPDLPERFARGIALQPDDMKTWYSQGPEGYTDYPSATSGPN,Km,[6],100 µM
same,Vmax,[6],21.0 µmol/min/mg
